According to the supplement of paper PMC9170038:

Tested on: MS2 coat protein
Assay: apparent KD of MS2 coat protein; designed switch direction (-1 OFF switch, 1 ON switch): -1; higher = weaker reporter binding
How it was run: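 Each step of the titration lasted 0.8–1.5 h at the lowest concentration and 10–20 min at the highest. The protein, SNAP-549-labelled MS2 coat protein, went from 0.7 or 1.5 nM doubling to 3 µM over RNA switches transcribed on Illumina chips by stalled E. coli RNA polymerase. Normalised cluster fluorescence was curve-fitted, and the per-design median over clusters is given as apparent KD.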

[1] = input ligand: microRNA oligo, concentration not stated
[2] = Eterna round: R95, input ligand: microRNA oligo, concentration not stated
[3] = Eterna round: R95, input ligand: FMN 200 uM
[4] = Eterna round: R95, input ligand: none

Sequence | apparent KD of MS2 coat protein (input ligand: FMN 200 uM) [µM] | apparent KD of MS2 coat protein (input ligand: none) [µM] | apparent KD of MS2 coat protein [2] [µM] | further results
CUUUUGUGAGGAUAUUCAUAGUAGGGUCAUGGCAUUAUUAUGAAGAAGGCACAUGAGGAUCACCCAUGUACCUU [EX4 #49] (Eterna round: R97, puzzle: Exclusion 4) | 0.0328 | 0.0215 | – | –
ACAUGUAAUGUAGGAUAUUUUACACAUGAGGAUCACCCAUGUGACCGGAGGCUUUACUAUGAGUAAAAGAAGGGUAUGUACAUG [Ex NG2 #61] (Eterna round: R96, puzzle: Exclusion NG 2) | 0.0685 | 0.0458 | – | apparent KD of MS2 coat protein [1]: 0.0331 µM
AUUGACUGAGGAUAUUGUACUGCUGACAUGAGGAUCACCCAUGUAUGUUAACUCGGCCGUCGAGAAGGCAGAAAUG [BotMod 21 - Jieux - Exclusion 5] (Eterna round: R97, puzzle: Exclusion 5) | 0.0184 | 0.0348 | – | –
AGCAUGCUAGGAUAUACGGGACAUUAGGGUUCGUUGUAUGGACAUGAGGAUCACCCAUGUAGAAGGAGCGUGCA [Mat - Exclusion 2 - Mod of Hyphema - D94] (puzzle: Exclusion 2) | – | – | 0.0235 | –
CUUGUGUAAGGAUAUGCCUGGCCGUGAGGCCAGAUUGAAUAGCAGAAGGUACAUGAGGAUCACCCAUGUACGGG [jl-ex4-4.60 ViennaUCT mod] (Eterna round: R97, puzzle: Exclusion 4) | 0.256 | 0.376 | – | –
CAGUACUGAGGAUAUACAUGAGGAUCACCCAUGUGAUCUAGUGCACGCGUACGUGUACGUAGAAGGCAGUACUG [JL 3.27 m3] (Eterna round: R97, puzzle: Exclusion 3) | 0.562 | 0.0468 | – | –
UUGCCUAGUGUUAGGAUAUGCGACGGGUGACCGUUGCAGAAGGAACAUGAGGAUCACCCAUGUUUAAUAAAAUC [JL-BMX4-4.44 ViennaUCT mod] (Eterna round: R97, puzzle: Brourd's mod of Exclusion 4) | 0.0359 | 0.0132 | – | –
CUUUUGUGAGGAUAUCAGUAGUAAAAAAAUAAAAUUACUACUUAGAAGGCACAUGAGGAUCACCCAUGUUCCUC [salish99_ex4_r3_030] (puzzle: Exclusion 4) | – | – | 0.0254 | –
AGCAUGUAAGGAUAUGCAACACAGCUUUCAAUCGCUGUGCCGCAGAAGGUACAUGAGGAUCACCCAUGUGCUCC [Anesonza] (puzzle: Exclusion 4) | – | – | 0.0756 | –
GAUUAGGUAGGAUAUACGUAGUGAGCCAGCGAGAGCUGGUAACAUGAGGAUCACCCAUGUAGAAGGACCAUUAA [Xeorqulaus] (Eterna round: R97, puzzle: Exclusion 2) | 0.145 | 0.0724 | – | –
GUUAAACAUGAGGAUCACCCAUGUAAGGAUAUGCUGCGGUAGAGAUGAAGUGAAUGCAGCAGAAGGUACAAUUG [Mat - Mod of JL D54] (puzzle: Exclusion 1) | – | – | 0.0805 | –
GAUUAUGCAAGCUUUCGGGACAUGAGGAUCACCCAUGUUCGUCUUAUUGAUCUAGGUACGCUGACGUACCUAGAUCU [JL-sv1-2.33 Brourd mod] (puzzle: Sensor v3, turn-off variant 1) | – | – | 0.0652 | apparent KD of MS2 coat protein [3]: 0.017 µM
UUUUUUGUUGUGAGGAUAUCGUAUUUUUUUUGUUACGAGAAGGCACAUGAGGAUCACCCAUGUUUUUUGAUGUU [JR_BMOE4_Sub065] (puzzle: Brourd's mod of Exclusion 4) | – | – | 0.0284 | –
CAACACUGAGGAUAUGCUCGGCCGGUUCUCCGUGCCCAAGUACUUGAGGAUCACCCAAGUAGAAGGCAGUAAAA [Diedar] (Eterna round: R97, puzzle: Exclusion 2) | 0.0181 | 0.016 | – | –
UUUUAACAUGAGGAUCACCCAUGUGAGGAUAUCGAAAUUUAUAUUAAUAUUUUUAAAUCGAGAAGGCACAUUUU [JMF 68] (puzzle: Exclusion 1) | – | – | 0.0989 | –
UCAUGUCCUGAGGAUAUGUAGCGGAUAAACGCAACAGAAGGCAGGACAUGAGGAUCACCCAUGUGCGCCUUUCA [Exclusion 6 Mod2 of JL of Mod of Letion by ViennaUCT] (Eterna round: R97, puzzle: Exclusion 6) | 0.0267 | 0.0845 | – | –
AAACUGCAUGUGAGGAUAUGCACCGACUAAACCGGGCAGAAGGCACAUGAGGAUCACCCAUGUCAUCCUAUUGC [Beederte] (puzzle: Brourd's mod of Exclusion 4) | – | – | 0.00799 | –
AUAGCUCGUGUUAGGAUAUCCGCAUAUUUUACAUAGGAGAAGGAACAUGAGGAUCACCCAUGUAAUAGAAAAGA [Maenri] (puzzle: Brourd's mod of Exclusion 4) | – | – | 0.101 | apparent KD of MS2 coat protein [3]: 0.138 µM; apparent KD of MS2 coat protein [4]: 0.0747 µM

Sequence | apparent KD of MS2 coat protein (input ligand: FMN 200 uM) [µM] | apparent KD of MS2 coat protein (input ligand: none) [µM] | apparent KD of MS2 coat protein [2] [µM] | further results
UCAUACGGUGAGGAUAUCUCCGUUAAAGUAUGUAGAGAAGGCGCUACAUGAGGAUCACCCAUGUUUGUGGGCAG [Ex-6 Malc#10] (puzzle: Exclusion 6) | – | – | 0.323 | –
GGAGGACGAGCAGGAUAUUUUCACAUGAGGAUCACCCAUGUGUAUUCAGGGUAAUCUUCCGCCGAAAAGAAGGGUUCGGAAGAA [JL ViennaUCT Socedi mod 3] (Eterna round: R96, puzzle: Exclusion NG 2) | 0.0471 | 0.0259 | – | apparent KD of MS2 coat protein [1]: 0.0274 µM
CGUCAACAUGAGGAUCACCCAUGUUAGGAUAUGGCGGUCCAUGGUUGGGACUAGACCGCCAGAAGGAGCAUGCG [Eternabot (L1) Solution 54] (Eterna round: R97, puzzle: Exclusion 1) | 0.0719 | 0.0868 | – | –
CUUCGACAUGAGGAUCACCCAUGUCAGGAUAUUGUGUAUCUGGUUUUUUACAGAUAGACAAGAAGGGAUGUGUU [LRO-Excl1-01] (puzzle: Exclusion 1) | – | – | 0.0252 | –
CCUUGACAUGAGGAUCACCCAUGUGAGGAUAUCCUGCGAGGAUCAAAAGAUCCUCGUGGGAGAAGGCAUAUGAA [Omei Ex1 A7] (Eterna round: R97, puzzle: Exclusion 1) | 0.0326 | 0.0167 | – | –
UCGUGUAUAGAGGAUAUAUUAAUAUUUAAAACAAUAGAAGGCUAAACAUGAGGAUCACCCAUGUAUUUGGUUUU [JR_Ex6_Sub054] (Eterna round: R97, puzzle: Exclusion 6) | 0.0584 | 0.0209 | – | –
GCUUUUCUUUUCCUUUCUUACAUGAGGAUCACCCAUGUUUCUUGUCCUGCUCGCGUUGCUCGUCUGUCUGUCUGUUG [salish99_TOv1_r3_080] (puzzle: Sensor v3, turn-off variant 1) | – | – | 0.0243 | apparent KD of MS2 coat protein [3]: 0.0287 µM; apparent KD of MS2 coat protein [4]: 0.0312 µM
UCCGUUUGAGGAUAUAUGUAGACAAACAUGAGGAUCACCCAUGUCGGGAUCGAAAUGUCCGUAGAAGGCAAACUGG [Eternabot (L2) Solution 13] (Eterna round: R97, puzzle: Exclusion 5) | 0.0652 | 0.0229 | – | –
CGGUGCUGAGGAUAUACAUGAGGAUCACCCAUGUGUUCUUGCUAGCGUACUGGCAGAUGUAGAAGGCGGUACUG [JL-ex3-3.45 Brourd mod] (puzzle: Exclusion 3) | – | – | 0.0197 | apparent KD of MS2 coat protein [3]: 0.0997 µM; apparent KD of MS2 coat protein [4]: 0.0227 µM
AUCAUGCAGUAGGAUAUCGAUCCACAAUAUGAACGAGAAGGGCUGACAUGAGGAUCACCCAUGUGCGUCCGAAG [Becebe] (Eterna round: R97, puzzle: Exclusion 6) | 0.0167 | 0.019 | – | –
AGAUGCUCGAGUCGACAUGAGGAUCACCCAUGUACAGUUAGUGAGGAUAUCGGAGACACAUAGUAUGAGAAGGCGCGAACGUGA [Ex NG3 #15] (Eterna round: R96, puzzle: Exclusion NG 3) | 0.224 | 0.0978 | – | apparent KD of MS2 coat protein [1]: 0.0521 µM
AACCUGAGGCUUUGCUUUAGGUAUACAUGAGGAUCACCCAUGUAGGAUAUGGUAGGCUUUGCUUACCAGAAGGACAUGUUAAUU [JL ENG3 1.10] (Eterna round: R96, puzzle: Exclusion NG 3) | 0.136 | 0.0442 | – | apparent KD of MS2 coat protein [1]: 0.0417 µM
GCCGCCGCCUUGGCGGCGGACAUGAGGAUCACCCAUGUCAAGCUUUUGCUCGUCUUAUUUGGCCGGCUUGCCGGCCA [Olib_1] (Eterna round: R97, puzzle: Sensor, turn-off variant 1) | 0.0245 | 0.0261 | – | –
AGAAAGCAAGGAUAUACGAGGAGAAGGUGGAAAGUUAAAGGACAUGAGGAUCACCCAUGUAGAAGGUGCGAGAA [JR_Exclu2_Sub043] (puzzle: Exclusion 2) | – | – | 0.0462 | apparent KD of MS2 coat protein [3]: 0.0793 µM; apparent KD of MS2 coat protein [4]: 0.0554 µM
CUCAGACAUGAGGAUCACCCAUGUCAGGAUAUCGUCUACCUGUGGAAACACAGGUAGACGAGAAGGGAUGUGUU [SS1 Omei 3 v1] (puzzle: Exclusion 1) | – | – | 0.0435 | –
GUGGUACAUGAGGAUCACCCAUGUUAGGAUAUCGCGUGAGGUUUUACUUCCGCACACGCGAGAAGGGACGUCUU (puzzle: Exclusion 1) | – | – | 0.0414 | –
GGUUGGCGAGGAUAUACAUGAGGAUCACCCAUGUGGUCCUGUGGCUGAUCAAGCCUAUGUAGAAGGCGCAAAUC [salish99_ex3_r4_012] (Eterna round: R97, puzzle: Exclusion 3) | 0.137 | 0.257 | – | –
AAUGGUAAAGUCAGGAUAUACGUAAGUCGUUCUAGGUAGAAGGGACAUGAGGAUCACCCAUGUAUGAUAGUAAA [Ex4 #33] (Eterna round: R97, puzzle: Brourd's mod of Exclusion 4) | 0.0254 | 0.0446 | – | –
